The term Km denotes the substrate concentration at which the rate is half of its maximum. By kcat is commonly meant the number of substrate molecules converted per active site and unit of time at saturation. By kcat/Km is commonly meant the turnover number divided by the Michaelis constant.

The record followed here is paper PMC3691600, “Conversion of fatty aldehydes into alk (a/e)nes by in vitro reconstituted cyanobacterial aldehyde-deformylating oxygenase with the cognate electron transfer system” (Biotechnology for Biofuels, 2013).

Substrate in data set [1]: CCCCCCC=O
Description: GC headspace assay of n-hexane formation. It is filed as biochemical, Synechococcus elongatus. The note with it: chemical reductants PMS/NADH, ferrous ammonium sulfate, HEPES pH 7.2, 100 mM KCl, 10% glycerol, 4% DMSO, 37°C (conditions of the kcat assay).

Substrate in the data set “purified protein”: NC(=O)C1=CN([C@@H]2O[C@H](COP(=O)(O)OP(=O)(O)OC[C@H]3O[C@@H](n4cnc5c(N)ncnc54)[C@H](OP(=O)(O)O)[C@@H]3O)[C@@H](O)[C@H]2O)C=CC1
Briefly: purified protein. It is filed as biochemical, Synechococcus elongatus. The note with it: 0.7 mM potassium ferricyanide, 50 mM Tris-HCl pH 8.0, 25°C.

B1: ADO 1593 (Synechococcus elongatus PCC 7942 = FACHB-805) (protein)
chain: MPQLEASLELDFQSESYKDAYSRINAIVIEGEQEAFDNYNRLAEMLPDQRDELHKLAKMEQRHMKGFMACGKNLSVTPDMGFAQKFFERLHENFKAAAAEGKVVTCLLIQSLIIECFAIAAYNIYIPVADAFARKITEGVVRDEYLHRNFGEEWLKANFDASKAELEEANRQNLPLVWLMLNEVADDARELGMERESLVEDFMIAYGEALENIGFTTREIMRMSAYGLAAV
notes: apo-ADO reconstituted with ferrous iron
For the protein B1, in data set [1], the Michaelis constant (Km) was found to be 224 ± 40 µM and the kcat was 0.002 ± 0.00033 s⁻¹.

B2: FNR (SynPcc7942_0978) (Synechococcus elongatus PCC 7942 = FACHB-805) (protein)
chain: MLNASVAGGAATTTYGNRLFIYEVIGLRQAEGEPSDSSIRRSGSTFFKVPYSRMNQEMQRILRLGGKIVSIRPAEEAAANNGAAPLQAAAEEPAAAPTPAPAAKKHSAEDVPVNIYRPNKPFVGKVLSNEPLVQEGGIGVVQHLTFDISEGDLRYIEGQSIGIIPDGTDDKGKPHKLRLYSIASTRHGDHVDDKTVSLCVRQLQYQNEAGETINGVCSTFLCGLKPGDDVKITGPVGKEMLLPADTDANVIMMGTGTGIAPFRAYLWRMFKDNERAINSEYQFNGKAWLIFGIPTTANILYKEELEALQAQYPDNFRLTYAISREQKNEAGGRMYIQDRVAEHADEIWNLLKDEKTHVYICGLRGMEDGIDQAMTVAAAKEDVVWSDYQRTLKKAGRWHVETY
Take B2: in the data set “purified protein”, the Km came to 92.5 ± 7.6 µM, the kcat is 227 ± 7 s⁻¹ and the kcat/Km is 2.5e+06 ± 300000 M⁻¹ s⁻¹.
